Patent US6218600A, “Structure and expression of the biotin carboxylase subunit of heteromeric acetyl-CoA carboxylase” (Board of Trustees Operating Michigan State University, priority 1996, dated 2001)

B1: 16:0-ACP: long-chain acyl-ACP synthesized from radioactive 16:0 fatty acid and recombinant spinach ACP-I (conjugate, UniProt P07854 57-138, looked up)
Acyl carrier protein 1, …: AKKETIDKVCDIVKEKLALGADVVVTADSEFSKLGADSLDTVEIVMNLEEEFGINVDEDKAQDISTIQQAADVIESLLEKKA
modifications: radiolabeled palmitoyl (16:0) acyl thioester
B2: 18:1-ACP: long-chain acyl-ACP synthesized from radioactive 18:1 fatty acid and recombinant spinach ACP-I (conjugate, UniProt P07854 57-138, looked up)
Acyl carrier protein 1, …: B1 Acyl carrier protein 1, …
modifications: radiolabeled oleoyl (18:1) acyl thioester

Experiments:
Castor Endosperm ACCase = assay: ACCase activity assay, castor endosperm extract, with metabolites of fatty acid synthesis; type: biochemical, castor (Ricinus Communis L.); settings: mean of duplicate determinations ± standard deviation, 15 min
Pea Chloroplast ACCase = assay: ACCase activity assay, pea chloroplast enzyme partially purified by gel permeation, with metabolites of fatty acid synthesis; type: biochemical, pea (Pisum sativum); settings: mean of duplicate determinations ± standard deviation, 15 min

| Molecule | Castor ACCase Activity (% of Control) (Castor Endosperm ACCase; 10 μM addition) | Pea ACCase Activity (% of control) (Pea Chloroplast ACCase; 1 μM addition) | Pea ACCase Activity (% of control) (Pea Chloroplast ACCase; 3 μM addition) | Pea ACCase Activity (% of control) (Pea Chloroplast ACCase; 10 μM addition) | Castor ACCase Activity (% of Control) (Castor Endosperm ACCase; 5 μM addition) |
| --- | --- | --- | --- | --- | --- |
| CCCCCCCCCCCCCCCC(=O)O [16:0, reference compound] | 97 ± 8 % of Control |  |  |  |  |
| CCCCCCCC/C=C\CCCCCCCC(=O)O [18:1, Oleic acid, reference compound] | 72 ± 10 % of Control |  |  |  |  |
| B1 | 75 ± 3 % of Control | 98 ± 2 % of control | 91 ± 4 % of control | 77 ± 4 % of control |  |
| B2 | 63 ± 11 % of Control | 97 ± 1 % of control | 87 ± 3 % of control | 79 ± 14 % of control | 81 ± 9 % of Control |
